Consider three molecules from patent US20260335456A1, “ANTIBODY-DRUG CONJUGATE HAVING CAMPTOTHECIN-BASED DRUG LINKED TO ANTIBODY HAVING LOW ANTIGEN-BINDING AFFINITY THROUGH LINKER” (PINOTBIO, INC., priority 2022, published 2026).

Where two headings read alike, the source gives them in different places.

Data set [1] relates to A549 cell line. The experiment in a line: Western blot of DDX5 and anti-apoptotic proteins in A549. Format: cell-based. (In general: A western blot detects proteins with antibodies after separation by electrophoresis.)
In data set [2] the test system is FaDu cell line. The experiment in a line: Western blot of DDX5 and anti-apoptotic proteins in FaDu. The data set is classed as cell-based. The following applies: 0, 10, 100 nM. The protocol: 1-1: Confirmation of Suppressive Activity of Expression of Cancer-Related Survival Genes of DDX5, Survivin, Mcl-1, XIAP and cIAP2 Through Western Blot
200,000 FaDu cell lines were seeded per well in a 6-well plate and incubated at constant temperature (37 °C, 5% CO2). […] It was incubated at constant temperature (37 °C, 5% CO2) for 24 hours. The well was treated with 100 μL of RIPA buffer dissolved in protease inhibitor cocktail. […] Protein concentration was determined through protein assay.
Electrophoresis was performed on the gel at 60V.
7 sheets of activated filter paper, PVDF membrane, gel and 7 sheets of filter paper were placed in order in the cassettes of the Trans-Blot® Turbo™ Transfer System, and the lid was closed, and after being inserted into the machine, the protocol started.
The transferred membrane was immersed in blocking buffer and incubated at constant temperature (RT, 1h). Next, it was incubated at 4 °C overnight in primary antibody solution. It was rinsed with TBST buffer for 3 minutes (repeated 3 times). Incubation was performed (RT, 1h) in a secondary antibody solution conjugated with HRP. It was rinsed with TBST buffer for 3 minutes (repeated 3 times).
After soaking the membrane in the ECL substrate for 3 to 5 minutes, the signal was determined by using the ChemiDoc™ MP Imaging System.

The test system of data set [3] is MDA-MB-453 (HER2++) and FaDu (HER2+) cell lines. The experiment in a line: Cell viability test in MDA-MB-453 and FaDu. Format: cell-based. The note with it: 3 days, FIG. 10. The protocol:
Cell viability assay was performed on MDA-MB-453 (HER2++) cell line and FaDu (HER2+) cell line in the same manner as Example 1-2.

The nature of data set [4]: PBX-7016 pharmacokinetic profile in NOD SCID mice. Format: in vivo.
Data set [5] in a line: Lactone to carboxylate form conversion in pH 7.4. Format: physicochemical. On the procedure:
3-2. Lactone to Carboxylate Form Conversion in pH 7.4
Afterwards, it was centrifuged at 4 °C, 2 minutes, and 13,000 RCF conditions, and the supernatant was used as a sample.
The column used was Cortecs C18 2.7 μm, 4.6×50 mm Column, and analysis was conducted under the following conditions. 1) 20 minutes: 5% B, 2) sample injection, 3) 2 minutes: 5% B, 4) 10 minutes: 5% B→50% B, 5) 1 minute: 50% B.
In order to measure changes over time, the sample chamber was maintained at 37 °C, and the sample was set to be injected every measurement time. The measurement times were 0, 20, 40, 60, 90, 120, 180, 240, 300, 360, 480, 600 and 720 minutes.
The content was calculated from the peak area of each lactone and carboxylate. Since the absorption coefficients of lactone and carboxylate are different, the lactone area was obtained by multiplying the carboxylate area by the equation below.

In data set [6] the test system is A549. The experiment in a line: Cell viability assay in A549. Format: cell-based. The note with it: A549, FIG. 9. On the procedure: After 24 hours, 100 μL of the drug at 9 concentrations (serial dilution of 1/5 from 1,000 nM) was treated with the cells. […] In this case, a control group that was not treated with the drug (drug concentration 0) was also prepared. It was cultured at constant temperature (37 °C, 5% CO2) for 3 or 6 days. 100 μL of CellTiter-Glo reagent (using CellTiter-Glo® Luminescent Cell Viability Assay kit (Promega, G7571)) was added to each well and pipetted. After incubation at constant temperature (RT) for 10 minutes, luminescence was measured.

Data set [7] deals with T1, Trop2 (Homo sapiens, UniProt P09758).
T1 sequence (P09758 27-323): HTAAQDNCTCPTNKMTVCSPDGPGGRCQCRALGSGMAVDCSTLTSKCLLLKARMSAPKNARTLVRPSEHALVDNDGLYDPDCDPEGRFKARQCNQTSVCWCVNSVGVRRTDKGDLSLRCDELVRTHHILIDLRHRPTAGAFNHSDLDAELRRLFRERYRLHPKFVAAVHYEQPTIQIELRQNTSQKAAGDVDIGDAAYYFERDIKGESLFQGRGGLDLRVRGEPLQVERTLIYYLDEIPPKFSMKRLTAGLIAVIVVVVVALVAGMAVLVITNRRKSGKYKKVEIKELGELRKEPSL
In words: PBX-001 in vitro and in vivo efficacy versus Trodelvy. The note with it: FIGS. 11 to 13.

Data set [8] deals with cells with an ABCG2 efflux pump. The experiment in a line: ABCG2 efflux pump resistance, PBX-001 versus Trodelvy. The data set is classed as cell-based.
In data set [9] the test system is non-human primate. In words: PBX-001 non-human primate toxicity study. The data set is classed as in vivo.
Data set [10] concerns FaDu Xenograft model. The experiment in a line: PBX-001 in FaDu Xenograft model. Format: in vivo. The note with it: DAR 8, FIGS. 12 and 13.
In data set [11] the test system is various metastatic solid tumors. The following applies: 8 mg/kg to 18 mg/kg; cited from earlier work.
Data set [12] concerns patients treated with Sacituzumab Govitecan. The following applies: cited from earlier work.
Data set [13] has as its system metastatic epithelial cancers. The following applies: cited from earlier work.

Regarding `CC[C@@]1(O)C(=O)OCc2c1cc1n(c2=O)Cc2c-1nc1cc3c(c4c1c2[C@@H](NC(=O)[C@@H](C)O)CC4)OCO3` [PBX-7016], in data set [1], the “dual mechanism (topoisomerase I inhibition and DDX5 degradation)” value is given as “dual MoA that acts as a degrader of DDX5 (p68)”. Besides, the DDX5 inhibition result in [1] (FIGS. 7 and 8) was “inhibits DDX5 in a concentration-dependent manner”. Also, in data set [1] (FIGS. 7 and 8), the “Survivin, Mcl-1 inhibition” value is listed as “observed to inhibit Survivin, Mcl-1”. Further, in data set [1] (FIGS. 7 and 8), the “comparison with PBX-7014” value is given as “worked better than PBX-7014”. In addition, the DDX5 degradation ranking result in data set [1] (FaDu and A549, 0, 10, 100 nM) is “followed by 7011, 7016 and 7014”; in [2] (FaDu and A549) it was “followed by 7011, 7016 and 7014”. For the same molecule, the “expression of anti-apoptotic proteins” value in data set [2] (Survivin, cIAP2, Mcl-1, XIAP, 24 hours) was “decrease in the expression of Survivin, cIAP2, Mcl-1 and XIAP as the concentration increased”. The “IC50 compared to Dxd” value in data set [3] is reported as “IC50 of the same or higher level than Dxd”. For the same molecule, the “plasma concentration, individual mice” value was “BLOQ” in data set [4] (IP 1 mg/kg, 4 h, Mouse 4-6); “BLOQ” in data set [4] (IP 1 mg/kg, 12 h, Mouse 4-6); “BLOQ” in [4] (IP 1 mg/kg, 24 h, Mouse 4-6); “BLOQ” in data set [4] (IP 1 mg/kg, 48 h, Mouse 4-6); “BLOQ” in data set [4] (IV 1 mg/kg, 4 h, Mouse 1-3); “BLOQ” in data set [4] (IV 1 mg/kg, 12 h, Mouse 1-3). In addition, the “plasma concentration, individual mice” value in data set [4] (IV 1 mg/kg, 24 h, Mouse 1-3) was “BLOQ”; in [4] (IV 1 mg/kg, 48 h, Mouse 1-3), “BLOQ”. The “clearance from the blood” value in [4] (intravascular or intraperitoneal, mice) is reported as “cleared from the blood very quickly”. Moreover, in data set [5] (pH 7.4, 37 °C), the “rate of conversion from lactone to carboxylate form” value turned out to be 0.8 % per minute. In data set [5] (pH 7.4, 37 °C, PBS with 10% DMSO, read-out: carboxylate form formed), the degraded at 3 µM was above 86%. Further, the “lactone to carboxylate conversion versus reference compounds” value in [5] (pH 7.4, reference: exatecan, DXd, SN-38, FL118) was “faster and at a higher rate than other reference compounds”. Also, the “efficacy / IC50 in ABCG2-overexpressing cells” value in [6] is given as “still maintained strong efficacy”.
For the molecule “PBX-001: ADC of humanized anti-Trop2 antibody hRS7, FL118 and CL2A linker system”, the “in vitro and in vivo efficacy versus Trodelvy” value in data set [7] is listed as “better efficacy than Trodelvy”. Besides, in [8], the “resistance through ABCG2 efflux pump” value was “not affected”. In addition, the safety entry in [9] is given as “excellent safety”. Moreover, the “anticancer efficacy and weight loss” value in data set [10] is listed as “excellent anticancer efficacy without weight loss”.
In the case of “Sacituzumab Govitecan: humanized IgG linked to SN-38 through a pH-sensitive linker”, in data set [11], the dose-limiting toxicity entry is listed as “neutropenia”. Besides, in data set [12] (all treated patients), the “diarrhea, all grade” value is on record as 65% and the “neutropenia, any grade” value is listed as 61%. Besides, in [12] (patients), the febrile neutropenia is listed as 7% and the neutropenic colitis is listed as 0.5%. For the same molecule, the “resistance through ABCG2 efflux pump” value in data set [8] is recorded as “resistant”. In addition, in data set [13] (8 mg/kg), the “anemia, any grade” value was 38%; the “anemia, grade 3 or higher” value is 13%; the “constipation, any grade” value is listed as 33%; the “diarrhea, any grade” value is 53%. In addition, in [13] (8 mg/kg), the “diarrhea, grade 3 or higher” value is 4%; the dose reductions was 19%; the “fatigue, any grade” value is 61%; the “grade 3 or higher neutropenia after the first dose” value is on record as 21%. For the same molecule, in data set [13] (8 mg/kg), the “hair loss, any grade” value was 46%; the “leukopenia, grade 3 or higher” value is listed as 6%; the “nausea, any grade” value is recorded as 59%; the “neutropenia, any grade” value is given as 42%. Besides, in [13] (8 mg/kg), the “neutropenia, grade 3 or higher” value is 30% and the “vomiting, any grade” value was 36%. Besides, in [13] (10 mg/kg), the “anemia, any grade” value is recorded as 42%; the “constipation, any grade” value is 37%; the “diarrhea, any grade” value is 62%; the “diarrhea, grade 3 or higher” value was 10%. In addition, in data set [13] (10 mg/kg), the dose reductions is on record as 28%; the “fatigue, any grade” value is 52%; the “grade 3 or higher neutropenia after the first dose” value was 47%; the “hair loss, any grade” value is recorded as 37%. For the same molecule, in data set [13] (10 mg/kg), the “nausea, any grade” value is on record as 63%; the “neutropenia, any grade” value is 58%; the “neutropenia, grade 3 or higher” value is given as 36%; the “vomiting, any grade” value is recorded as 43%.
